Experimental data: patent US20190218277A1 (Chugai, published 2019)

Assays:
[1] = target: T1, Recombinant soluble E protein (0.8E-His) from DENV-3 (DENV-3, UniProt P27915 281-673)
T1 construct: also called DENV-3 E protein; DV3

[2] = target: T2, Recombinant soluble E protein (0.8E-His) from DENV-1 (DENV-1, UniProt P27909 281-675)
T2 construct: also called DENV-1 E protein; DV1

[3] = target: T3, Recombinant soluble E protein (0.8E-His) from DENV-2 (DENV-2, UniProt P14340 281-675); experiment: SPR, Biacore T200
T3 construct: also called DENV-2 E protein; DV2

[4] = target: T4, Recombinant soluble E protein (0.8E-His) from DENV-4 (DENV-4, UniProt P09866 280-674); experiment: SPR, Biacore T200
T4 construct: also called DENV-4 E protein; DV4

Binder	Kd [1] [pM]	Kd [2] [pM]	binding result [3]	binding result [4]
DG_3CH1047-SG1106/3CL-SK1 (antibody) heavy: QVQLVQSGPDVEKPGASVKVSCKASGYTFTSYYMHWVRQAPGQGLEWMGVINPRGGSRRSAQKFQGRITMTRDTSTSTVYMELSSLRSEDTAVYYCARGGEALFYDSYTTPFDGGSWWFDPWGQGSLVTVSSASTKGPSVFPLAPSSKSTSGGTAALGCLVKDYFPEPVTVSWNSGALTSGVHTFPAVLQSSGLYSLSSVVTVPSSSLGTQTYICNVNHKPSNTKVDKRVEPKSCDKTHTCPPCPAPEAAGGPSVFLFPPKPKDTLMISRTPEVTCVVVDVSHEDPEVKFNWYVDGVEVHNAKTKPREEQYNSTYRVVSVLTVLHQDWLNGKEYKCKVSNAALPAPISKTISKAKGQPREPQVYTLPPSREEMTKNQVSLTCLVKGFYPSDIAVEWESNGQPENNYKTTPPVLDSDGSFFLYSKLTVDKSRWQQGNVFSCSVLHEALHAHYTRKELSLSP light: not shown	4.71	2120	–	–
DG_3CH953-SG182/3CL633-SK1 (antibody, V domains shown) VH: QVQLVQSGPDVEKPGASVKVSCKASGYTFTSNYIHWVRQAPGQGLEWMGVINPRGGSRRSAQKFQGRITMTRDTSTSTVYMELSSLRSEDTAVYYCARGGRALFYDSYTTPFDGGSWWFDPWGQGSLVTVSS VL: DIQLTQSPSSLSASVGDRVTITCQASQDIRKYLNWYQQKPGKAPKLLIYDASNLKTGVPSRFSGSGSGTDFTLTISSLQPEDVATYYCQQFDDLPITFGQGTRLQIKR	4.96	1650	binds	binds
DG_3CH953-SG1095/3CL-SK1 (antibody, human IgG1, kappa, L234A L235A) heavy: QVQLVQSGPDVEKPGASVKVSCKASGYTFTSNYIHWVRQAPGQGLEWMGVINPRGGSRRSAQKFQGRITMTRDTSTSTVYMELSSLRSEDTAVYYCARGGRALFYDSYTTPFDGGSWWFDPWGQGSLVTVSSASTKGPSVFPLAPSSKSTSGGTAALGCLVKDYFPEPVTVSWNSGALTSGVHTFPAVLQSSGLYSLSSVVTVPSSSLGTQTYICNVNHKPSNTKVDKRVEPKSCDKTHTCPPCPAPEAAGGPSVFLFPPKPKDTLMISRTPEVTCVVVDVSHEDPEVKFNWYVDGVEVHNAKTKPREEQYNSTYRVVSVLTVLHQDWLNGKEYKCKVSNAALPAPISKTISKAKGQPREPQVYTLPPSREEMTKNQVSLTCLVKGFYPSDIAVEWESNGQPENNYKTTPPVLDSDGSFFLYSKLTVDKSRWQQGNVFSCSVMHEALHNHYTQKSLSLSP light: not shown	7.03	1790	–	–
DG_3CH989-SG182/3CL119-SK1 (antibody, V domains shown) VH: QVQLVQSGAEVKKPGASVKVSCKASGYTFTSNYIHWVRQAPGQGLEWMGVINPRGGSRRSAQKFQGRVTMTRDTSTSTVYMELSSLRSEDTAVYYCARGGRALFYDSYTTPFDGGSWWFDPWGQGSLVTVSS VL: DIQLTQSPSSLSASVGDRVTFTCQASQEIRKYLNWYQQKPGKAPKLLIYDASNLKTGVPSRFSGSGSGTDFTFTISSLQPEDVATYYCQQFDDLPITFGQGTRLQIKR	6.83	1530	binds	binds
DG_3CH989-SG182/3CL012-SK1 (antibody, V domains shown) VH: QVQLVQSGAEVKKPGASVKVSCKASGYTFTSNYIHWVRQAPGQGLEWMGVINPRGGSRRSAQKFQGRVTMTRDTSTSTVYMELSSLRSEDTAVYYCARGGRALFYDSYTTPFDGGSWWFDPWGQGSLVTVSS VL: DIQLTQSPSSLSASVGDRVTFTCQASQDIRKYLNWYQQKPGKAPKLLIYDASNLKTGVPSRFSGSGSGTDFTFTISSLQPEDVATYYCQQFEDLPITFGQGTRLQIKR	0.0967	1520	binds	binds
DG_3CH953-SG1106/3CL-SK1 (antibody) heavy: QVQLVQSGPDVEKPGASVKVSCKASGYTFTSNYIHWVRQAPGQGLEWMGVINPRGGSRRSAQKFQGRITMTRDTSTSTVYMELSSLRSEDTAVYYCARGGRALFYDSYTTPFDGGSWWFDPWGQGSLVTVSSASTKGPSVFPLAPSSKSTSGGTAALGCLVKDYFPEPVTVSWNSGALTSGVHTFPAVLQSSGLYSLSSVVTVPSSSLGTQTYICNVNHKPSNTKVDKRVEPKSCDKTHTCPPCPAPEAAGGPSVFLFPPKPKDTLMISRTPEVTCVVVDVSHEDPEVKFNWYVDGVEVHNAKTKPREEQYNSTYRVVSVLTVLHQDWLNGKEYKCKVSNAALPAPISKTISKAKGQPREPQVYTLPPSREEMTKNQVSLTCLVKGFYPSDIAVEWESNGQPENNYKTTPPVLDSDGSFFLYSKLTVDKSRWQQGNVFSCSVLHEALHAHYTRKELSLSP light: not shown	7.08	1850	–	–
DG_3CH987-SG182/3CL012-SK1 (antibody, V domains shown) VH: QVQLVQSGPDVEKPGASVKVSCKASGYTFTSYYIHWVRQAPGQGLEWMGVINPRGGSRRSAQKFQGRITMTRDTSTSTVYMELSSLRSEDTAVYYCARGGRALFYDSYTTPFDGGSWWFDPWGQGSLVTVSS VL: DIQLTQSPSSLSASVGDRVTFTCQASQDIRKYLNWYQQKPGKAPKLLIYDASNLKTGVPSRFSGSGSGTDFTFTISSLQPEDVATYYCQQFEDLPITFGQGTRLQIKR	2.67	1420	binds	binds
DG_3CH953-SG1095/3CL119-SK1 (antibody) heavy: QVQLVQSGPDVEKPGASVKVSCKASGYTFTSNYIHWVRQAPGQGLEWMGVINPRGGSRRSAQKFQGRITMTRDTSTSTVYMELSSLRSEDTAVYYCARGGRALFYDSYTTPFDGGSWWFDPWGQGSLVTVSSASTKGPSVFPLAPSSKSTSGGTAALGCLVKDYFPEPVTVSWNSGALTSGVHTFPAVLQSSGLYSLSSVVTVPSSSLGTQTYICNVNHKPSNTKVDKRVEPKSCDKTHTCPPCPAPEAAGGPSVFLFPPKPKDTLMISRTPEVTCVVVDVSHEDPEVKFNWYVDGVEVHNAKTKPREEQYNSTYRVVSVLTVLHQDWLNGKEYKCKVSNAALPAPISKTISKAKGQPREPQVYTLPPSREEMTKNQVSLTCLVKGFYPSDIAVEWESNGQPENNYKTTPPVLDSDGSFFLYSKLTVDKSRWQQGNVFSCSVMHEALHNHYTQKSLSLSP light: not shown	7.18	1990	binds	binds
DG_3CH987-SG182/3CL119-SK1 (antibody, V domains shown) VH: QVQLVQSGPDVEKPGASVKVSCKASGYTFTSYYIHWVRQAPGQGLEWMGVINPRGGSRRSAQKFQGRITMTRDTSTSTVYMELSSLRSEDTAVYYCARGGRALFYDSYTTPFDGGSWWFDPWGQGSLVTVSS VL: DIQLTQSPSSLSASVGDRVTFTCQASQEIRKYLNWYQQKPGKAPKLLIYDASNLKTGVPSRFSGSGSGTDFTFTISSLQPEDVATYYCQQFDDLPITFGQGTRLQIKR	0.715	1530	binds	binds
DG_3CH987-SG182/3CL-SK1 (antibody, V domains shown) VH: QVQLVQSGPDVEKPGASVKVSCKASGYTFTSYYIHWVRQAPGQGLEWMGVINPRGGSRRSAQKFQGRITMTRDTSTSTVYMELSSLRSEDTAVYYCARGGRALFYDSYTTPFDGGSWWFDPWGQGSLVTVSS VL: DIQLTQSPSSLSASVGDRVTFTCQASQDIRKYLNWYQQKPGKAPKLLIYDASNLKTGVPSRFSGSGSGTDFTFTISSLQPEDVATYYCQQFDDLPITFGQGTRLQIKR	0.986	1820	binds	binds
DG_3CH953-SG182/3CL666-SK1 (antibody, V domains shown) VH: QVQLVQSGPDVEKPGASVKVSCKASGYTFTSNYIHWVRQAPGQGLEWMGVINPRGGSRRSAQKFQGRITMTRDTSTSTVYMELSSLRSEDTAVYYCARGGRALFYDSYTTPFDGGSWWFDPWGQGSLVTVSS VL: DIQLTQSPSSLSASVGDRVTITCQASQEIRKYLNWYQQKPGKAPKLLIYDASNLKTGVPSRFSGSGSGTDFTLTISSLQPEDVATYYCQQFDDLPITFGQGTRLQIKR	5.48	1690	binds	binds
DG_3CH1047-SG1095/3CL-SK1 (antibody, human IgG1, kappa, L234A L235A) heavy: QVQLVQSGPDVEKPGASVKVSCKASGYTFTSYYMHWVRQAPGQGLEWMGVINPRGGSRRSAQKFQGRITMTRDTSTSTVYMELSSLRSEDTAVYYCARGGEALFYDSYTTPFDGGSWWFDPWGQGSLVTVSSASTKGPSVFPLAPSSKSTSGGTAALGCLVKDYFPEPVTVSWNSGALTSGVHTFPAVLQSSGLYSLSSVVTVPSSSLGTQTYICNVNHKPSNTKVDKRVEPKSCDKTHTCPPCPAPEAAGGPSVFLFPPKPKDTLMISRTPEVTCVVVDVSHEDPEVKFNWYVDGVEVHNAKTKPREEQYNSTYRVVSVLTVLHQDWLNGKEYKCKVSNAALPAPISKTISKAKGQPREPQVYTLPPSREEMTKNQVSLTCLVKGFYPSDIAVEWESNGQPENNYKTTPPVLDSDGSFFLYSKLTVDKSRWQQGNVFSCSVMHEALHNHYTQKSLSLSP light: not shown	2.93	2090	–	–
DG_3CH953-SG1095/3CL012-SK1 (antibody, human IgG1, kappa, L234A L235A) heavy: QVQLVQSGPDVEKPGASVKVSCKASGYTFTSNYIHWVRQAPGQGLEWMGVINPRGGSRRSAQKFQGRITMTRDTSTSTVYMELSSLRSEDTAVYYCARGGRALFYDSYTTPFDGGSWWFDPWGQGSLVTVSSASTKGPSVFPLAPSSKSTSGGTAALGCLVKDYFPEPVTVSWNSGALTSGVHTFPAVLQSSGLYSLSSVVTVPSSSLGTQTYICNVNHKPSNTKVDKRVEPKSCDKTHTCPPCPAPEAAGGPSVFLFPPKPKDTLMISRTPEVTCVVVDVSHEDPEVKFNWYVDGVEVHNAKTKPREEQYNSTYRVVSVLTVLHQDWLNGKEYKCKVSNAALPAPISKTISKAKGQPREPQVYTLPPSREEMTKNQVSLTCLVKGFYPSDIAVEWESNGQPENNYKTTPPVLDSDGSFFLYSKLTVDKSRWQQGNVFSCSVMHEALHNHYTQKSLSLSP light: not shown	5.53	1860	binds	binds
DG_3CH953-SG182/3CL668-SK1 (antibody, V domains shown) VH: QVQLVQSGPDVEKPGASVKVSCKASGYTFTSNYIHWVRQAPGQGLEWMGVINPRGGSRRSAQKFQGRITMTRDTSTSTVYMELSSLRSEDTAVYYCARGGRALFYDSYTTPFDGGSWWFDPWGQGSLVTVSS VL: DIQLTQSPSSLSASVGDRVTITCQASQDIRKYLNWYQQKPGKAPKLLIYDASNLKTGVPSRFSGSGSGTDFTLTISSLQPEDVATYYCQQFEDLPITFGQGTRLQIKR	2.36	1680	binds	binds
